The values that follow come from publication PMC6640053.

For this series, the system named is Lrp (C-terminal His6 as stated; cloned NdeI/XhoI in pET28a) (Escherichia coli K-12 (strain FW102 genomic DNA)). The experiment in a line: EMSA. To be noted: no effector; apparent overall Kd; four complexes B1-B4; 10 mM Tris-HCl pH 7.4, 5 mM MgCl2, 250 mM KCl, 2.5 mM CaCl2, 0.5 mM DTT, 2.5% glycerol, 37 C 25 min; L-Arg and/or L-Leu when indicated; excess sonicated …. On the technique in general: In EMSA bound probe runs differently from free probe, usually more slowly.

Regarding artP control region, the Kd worked out at 0.2 µM.
